The values that follow are results of earlier work, collected in PMC4166557.

The data set addresses MLL MBM1 4-15 (Homo sapiens) (UniProt Q03164).

As usually defined, the Kd is the free concentration of one partner at which half of the binding sites on the other are occupied at equilibrium, for simple one-to-one binding. Turning to menin (from UniProt O00255), the Kd was 56 nM.
